Non-standard residues stand in square brackets, D forms with d. No end group written: not given here. Tic = O=C(O)[C@@H]1Cc2ccccc2CN1; Ac6c = NC1(C(=O)O)CCCCC1 Bounds are passed on as bounds.

For this assay, the target named is human insulin receptor (HIR) (human, UniProt P06213). In words: competition.

For the molecule FHENFYDWFVRAVSKK [S107], binding was put at a Kd of 1000 nM.

B1: S218 (peptide)
chain 1: AFYDWFAKKX
chain 2: AFYDWFAKKX
modifications: listing feature
In the case of B1, binding was characterised by a dissociation constant (Kd) of 11000 nM. The value for LEEEWAQIQREVWHSPASESFYDWFERQL [S595] was 0.62 nM. Consider GIISQSCPESFYDWFAGQVSDPWWCW [S326 (G33)], for which the Kd (commonly the equilibrium constant for the complex coming apart) was 590 nM. For SLEEEWAQIQHELYGPAESESFYDWFERQL [S596], binding was put at a Kd of 0.045 nM. Take EGWDFYSYFSGLLASVT [S259]: the Kd was found to be 7700 nM.

B2: S527 (peptide)
chain 1: H[Ac6c]CAQE[dW]GSEL
chain 2: [Tic]QCSGSESFYDWFERQL
modifications: not fully specified; printed as H-Acy-CAQEwGSEL-Tic-QCSGSESFYDWFERQL; ends and bridges not checked
B2: the Kd came out at 2.4 nM.

Molecule SIEEEWAQIKCDVWGRCSESFYDWFERQL [S562] had a Kd of 0.018 nM.

B3: S231 (peptide)
chain 1: FHENFYDWFVRQVSKKGGGX
chain 2: FHENFYDWFVRQVSKKGGGX
modifications: listing feature
On to B3, for which the Kd was determined as 270 nM.

SLEEEWAQVECEVYGRGCSGSLDESFYDWFERQLG [S549]: the Kd came to 0.013 nM. As for HHHHHHKSLEEEWAQVECEVYGRGCPSGSLDESFYDWFERQLG [S524], the Kd was found to be 0.011 nM.

B4: S439 (peptide)
chain 1: ESFYDWFERQLGGGGK
chain 2: QEWAWVQCEVYGRGCPS
In turn, B4 had a Kd of 46 nM.

B5: S379 (peptide)
chain 1: GSLDESFYDWFERQLGKKKX
chain 2: GSLDESFYDWFERQLGKKKX
modifications: not fully specified; listing feature
With B5, binding was characterised by a dissociation constant (Kd) of 56 nM. With GSLDESFYDWFERQLGXK (listing feature) [S550], binding was characterised by a dissociation constant (Kd) of 40 nM. In turn, HPTSKEIYAKLLK [S122] had a Kd of 93 nM. In turn, NFYDWFVAELG [S243] returned a Kd of 2000 nM.

B6: S360 (peptide)
chain 1: XDWLQRNANFYDWFVAEL
chain 2: XDWLQRNANFYDWFVAEL
modifications: listing feature
B6: the Kd amounted to 990 nM.

In turn, SLEEEWAQVECEVYGRGCPSGGSGGSGLLDESFYHWFDRQLR [S510] showed a Kd of 0.062 nM. Consider NSFYEALRMLSSK [S121], for which the Kd was 31 nM. SIEEEWAQIKCDVWGRGCPSY [S593] showed a Kd of 2.2 nM. SLEEEWAQVECEVYGRGCPSGSLDESFYHWFERQLG [S542] had a Kd of 0.027 nM. As for SLELEWAQVECEVYGRGCPSGSLDESFYDWFERQLG [S539 (printed S519)], the Kd is 0.098 nM.

The molecule SLEQEWAQVECEVYGRGCPSGSLDESFYDWFERQLG [S538] came in with a Kd of 0.038 nM. As for SLEEEWAQVKCEVYGRGCPSGSLDESFYDWFERQLG [S540], the figure is 0.013 nM. FHENFADWFVRQVSKK [S220] had a Kd of more than 2000 nM.

B7: S301 (peptide)
chain 1: XDWLQRNANFYDWFVAEL
chain 2: XDWLQRNANFYDWFVAEL
modifications: listing feature
Turning to B7, the Kd was found to be 640 nM. As to RGTRSDPFYHKLSELLQGH [S368], the Kd was more than 20000 nM.

B8: S442 (peptide)
chain 1: ESFYDWFERQLGGGGK
chain 2: AWVQCEVYGRGCPS
For B8, the Kd was 160 nM. In turn, EHWNTVDPFYFTLFEWLRESG [S177] came in with a Kd of 27000 nM.

The molecule WFYDWFWE [S315] displayed a Kd of 68 nM.

B9: S456 (peptide)
chain 1: GSLDESFYDWFERQLGKK
chain 2: XKEWLDQEWAWVQCEVYGRGCPSEE
modifications: not fully specified; listing feature
Turning to B9, the Kd was 2.4 nM. The value for FHENFYDWFVRQVSKKXXSDGFYNAIELLS (not fully specified; listing feature) [S273] was 15 nM. The value for SLEEEWAQIECEVYGRGCPSESFYDWFERQLG [S554] was 0.0064 nM.

B10: S246 (peptide)
chain 1: ACAWPTYWNCGGGGX
chain 2: FHENFYDWFVRQVSKKX
modifications: not fully specified; listing feature
Consider B10, for which binding was characterised by a dissociation constant (Kd) of 50 nM. The value for SLEEEWAQIECEVYGRGCPSESFYDWFERQL (not fully specified (N-terminus); ends and bridges not checked) [S557] was 0.02 nM; that for SLEEEWAQVECEVYGRGCPSESFYDWFERQL [S530] was 0.008 nM; that for SLEEEWAQIQCEVWGRCSESFYDWFERQL [S564] was 0.013 nM. As to GRVDWLQRNANFYDWFV [S251], binding was put at a Kd of 56000 nM. As to Ac-SLEEEWAQIECEVYGRGCPSESFYDWFERQL (ends and bridges not checked) [S597], the Kd came to 0.0085 nM.

B11: S438 (peptide)
chain 1: ESFYDWFERQLGGGGK
chain 2: DQEWAWVQCEVYGRGCPS
B11 registered a Kd of 30 nM.

B12: S443 (peptide)
chain 1: ESFYDWFERQLGGGGK
chain 2: WVQCEVYGRGCPS
Turning to B12, the affinity, expressed as Kd, was 170 nM. SLEEEWAQIEEVWGRGPSESFYDWFERQLG [S569] displayed a Kd of 0.15 nM.

Source of the values: US20110124556 (published 2011).
